Data: paper PMC5450233, “SKIP controls lysosome positioning using a composite kinesin-1 heavy and light chain-binding domain” (Journal of Cell Science, 2017)

B1: GST–KHC(815-955) (domain or fragment)
chain: not shown
notes: 3C protease site between GST and KHC (pMW-GST); source: E. coli BL21(DE3), purified (glutathione–Sepharose beads)
B2: GST–KHC(815-917) (domain or fragment)
chain: not shown
notes: source: E. coli BL21(DE3), purified (glutathione–Sepharose beads)
B3: GST–KHC(876-917) (domain or fragment)
chain: not shown
notes: as for B2
B4: SKIP(1-310) (domain or fragment, UniProt Q8IWE5 1-310, looked up)
chain: MEPGEVKDRILENISLSVKKLQSYFAACEDEIPAIRNHDKVLQRLCEHLDHALLYGLQDLSSGYWVLVVHFTRREAIKQIEVLQHVATNLGRSRAWLYLALNENSLESYLRLFQENLGLLHKYYVKNALVCSHDHLTLFLTLVSGLEFIRFELDLDAPYLDLAPYMPDYYKPQYLLDFEDRLPSSVHGSDSLSLNSFNSVTSTNLEWDDSAIAPSSEDYDFGDVFPAVPSVPSTDWEDGDLTDTVSGPRSTASDLTSSKASTRSPTQRQNPFNEEPAETVSSSDTTPVHTTSQEKEEAQALDPPDACTEL
notes: SKIP (PLEKHM2), residues 1-310; also called SKIP(1-310) with GST removed by 3C protease; source: E. coli, purified as a GST fusion, GST cleaved with 3C protease

Key:
Conditions in all cases: both partners purified
SKIP(1-310) [1] = target: B4; assay: pull-down; GST–KHC(815-955) (0.5 nmol) on glutathione beads incubated with increasing concentrations of SKIP(1-310) in solution (up to 3.5 μM); SDS-PAGE, Coomassie, densitometry; one-site specific binding model with Hill slope; non-equilibrium, value to be interpreted with caution
SKIP(1-310) [2] = target: B4; assay: pull-down; GST–KHC truncations (0.5 nmol) on glutathione–Sepharose beads incubated with 300 μl of 1.2 μM SKIP(1-310) for 2 h at 4°C; 25 mM HEPES pH 7.5, 150 mM NaCl, 5 mM β-mercaptoethanol; Coomassie-stained SDS-PAGE
GST–KHC(815-955) = target: B1; assay: pull-down; GST–KHC(815-955) (0.5 nmol) on glutathione beads incubated with increasing concentrations of SKIP(1-310) in solution (up to 3.5 μM); SDS-PAGE, Coomassie, densitometry; one-site specific binding model with Hill slope; non-equilibrium, value to be interpreted with caution
GST–KHC(815-955), sequence (P56536 815-955): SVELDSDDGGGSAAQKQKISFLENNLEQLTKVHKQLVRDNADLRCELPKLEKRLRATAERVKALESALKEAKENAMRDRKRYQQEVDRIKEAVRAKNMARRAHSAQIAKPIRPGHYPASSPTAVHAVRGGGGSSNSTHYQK

Binder | binding result (SKIP(1-310) [2]) | also measured
B1 | – | Kd (SKIP(1-310) [1]): ~1500 nM
B2 | binds | –
B3 | binds | –
B4 | – | stoichiometry N (GST–KHC(815-955)): 1
